Substitutions are numbered along the chain they refer to. Names may count otherwise.
T1: Ep-CAM (UniProt P16422 24-265, limits assumed)
T1 construct: Antigen of the Biacore analysis of ING-1 variants
T1 sequence (looked up): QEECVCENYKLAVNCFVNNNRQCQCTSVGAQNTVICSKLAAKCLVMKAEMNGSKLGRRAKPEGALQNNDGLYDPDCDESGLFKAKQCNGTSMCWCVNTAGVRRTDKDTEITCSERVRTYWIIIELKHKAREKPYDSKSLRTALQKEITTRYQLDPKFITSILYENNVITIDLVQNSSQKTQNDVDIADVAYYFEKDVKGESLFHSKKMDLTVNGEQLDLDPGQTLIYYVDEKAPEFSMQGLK

B1: ING-1 heavy chain T53F (Fab, V domains shown)
VH: QIQLVQSGPELKKPGETVKISCKASGYTFTKYGMNWVKQAPGKGLKWMGWINFYTEEPTYGDDFKGRFAFSLETSASTANLQINNLKSEDTATYFCARFGSAVDYWGQGTSVTVSS
VL: DIVMTQAAFSNPVTLGTSGSISCRSSKSLLHSNGITYLYWYLQKPGQSPQLLIYQMSNLASGVPDRFSSSGSGTDFTLRISRVEAEDVGVYYCAQNLELPRTFGGGTKLEMKR
B2: ING-1 heavy chain Y32S (Fab, V domains shown)
VH: B1 VH with Y32S, F53T
VL: B1 VL
B3: ING-1 heavy chain T55H (Fab, V domains shown)
VH: B1 VH with F53T, T55H
VL: B1 VL
B4: ING-1 heavy chain Y54D (Fab, V domains shown)
VH: B1 VH with F53T, Y54D
VL: B1 VL
B5: ING-1 heavy chain T53R (Fab, V domains shown)
VH: B1 VH with F53R
VL: B1 VL
B6: ING-1 heavy chain T55Q (Fab, V domains shown)
VH: B1 VH with F53T, T55Q
VL: B1 VL
B7: ING-1 heavy chain T59H (Fab, V domains shown)
VH: B1 VH with F53T, T59H
VL: B1 VL
B8: ING-1 heavy chain T53Y (Fab, V domains shown)
VH: B1 VH with F53Y
VL: B1 VL
B9: ING-1 heavy chain W50H (Fab, V domains shown)
VH: B1 VH with W50H, F53T
VL: B1 VL
B10: ING-1 heavy chain W50K (Fab, V domains shown)
VH: B1 VH with W50K, F53T
VL: B1 VL
B11: ING-1 heavy chain Y32E (Fab, V domains shown)
VH: B1 VH with Y32E, F53T
VL: B1 VL
B12: ING-1 heavy chain W50R (Fab, V domains shown)
VH: B1 VH with W50R, F53T
VL: B1 VL
B13: ING-1 heavy chain W50Q (Fab, V domains shown)
VH: B1 VH with W50Q, F53T
VL: B1 VL
B14: ING-1 heavy chain W50Y (Fab, V domains shown)
VH: B1 VH with W50Y, F53T
VL: B1 VL
B15: ING-1 heavy chain T53Q (Fab, V domains shown)
VH: B1 VH with F53Q
VL: B1 VL
B16: ING-1 heavy chain T53W (Fab, V domains shown)
VH: B1 VH with F53W
VL: B1 VL
B17: ING-1 heavy chain T59Q (Fab, V domains shown)
VH: B1 VH with F53T, T59Q
VL: B1 VL
B18: ING-1 heavy chain Y32K (Fab, V domains shown)
VH: B1 VH with Y32K, F53T
VL: B1 VL
B19: ING-1 heavy chain W50F (Fab, V domains shown)
VH: B1 VH with W50F, F53T
VL: B1 VL
B20: ING-1 heavy chain T55W (Fab, V domains shown)
VH: B1 VH with F53T, T55W
VL: B1 VL
B21: ING-1 heavy chain T55Y (Fab, V domains shown)
VH: B1 VH with F53T, T55Y
VL: B1 VL
B22: ING-1 heavy chain Y32H (Fab, V domains shown)
VH: B1 VH with Y32H, F53T
VL: B1 VL
B23: ING-1 heavy chain T53N (Fab, V domains shown)
VH: B1 VH with F53N
VL: B1 VL
B24: ING-1 heavy chain Y32Q (Fab, V domains shown)
VH: B1 VH with Y32Q, F53T
VL: B1 VL
B25: ING-1 heavy chain Y54E (Fab, V domains shown)
VH: B1 VH with F53T, Y54E
VL: B1 VL
B26: ING-1 heavy chain W50S (Fab, V domains shown)
VH: B1 VH with W50S, F53T
VL: B1 VL
B27: ING-1 heavy chain T53H (Fab, V domains shown)
VH: B1 VH with F53H
VL: B1 VL
B28: ING-1 heavy chain W50N (Fab, V domains shown)
VH: B1 VH with W50N, F53T
VL: B1 VL
B29: ING-1 heavy chain T55D (Fab, V domains shown)
VH: B1 VH with F53T, T55D
VL: B1 VL
B30: ING-1 heavy chain W50E (Fab, V domains shown)
VH: B1 VH with W50E, F53T
VL: B1 VL
B31: ING-1 heavy chain T55F (Fab, V domains shown)
VH: B1 VH with F53T, T55F
VL: B1 VL
B32: ING-1 heavy chain T55E (Fab, V domains shown)
VH: B1 VH with F53T, T55E
VL: B1 VL

target: T1, Ep-CAM; test: Biacore, Fab periplasmic extract

Row | binding result | fold difference in affinity vs original | Binder
1 | no binding | – | B1
2 | – | 0.01 fold | B2
3 | – | 0.05 fold | B3
4 | – | 0.05 fold | B4
5 | no binding | – | B5
6 | – | 0.03 fold | B6
7 | – | 0.4 fold | B7
8 | no binding | – | B8
9 | – | 0.02 fold | B9
10 | – | 0.04 fold | B10
11 | – | 0.08 fold | B11
12 | – | 0.1 fold | B12
13 | – | 0.01 fold | B13
14 | – | 0.04 fold | B14
15 | no binding | – | B15
16 | no binding | – | B16

Row | binding result | fold difference in affinity vs original | Binder
17 | no binding | – | B17
18 | – | 0.08 fold | B18
19 | – | 0.09 fold | B19
20 | – | 0.1 fold | B20
21 | – | 0.03 fold | B21
22 | – | 0.6 fold | B22
23 | no binding | – | B23
24 | – | 0.1 fold | B24
25 | – | 0.07 fold | B25
26 | – | 0.02 fold | B26
27 | no binding | – | B27
28 | – | 0.03 fold | B28
29 | – | 0.03 fold | B29
30 | no binding | – | B30
31 | – | 0.03 fold | B31
32 | no binding | – | B32

Source: patent publication US20110118131A1 (published 2011)
